Assay results as given in the Human Domainome abundance scans (Beltran et al. 2025).
± gives the uncertainty stated by the source.

B1: POU domain, class 2, transcription factor 1, residues 285 to 354; numbered along this chain, P14859 (parent)
chain: LEELEQFAKTFKQRRIKLGFTQGDVGLAMGKLYGNDFSQTTISRFEALNLSFKNMCKLKPLLEKWLNDAE

Variants of: B1
Experiment: abundance fitness (aPCA) (normalised: wild type 0, dead -1); higher = more abundant; growth selection in yeast, the domain comes from the species named
Conditions: Homo sapiens

Variant	abundance fitness
M29L	-0.016 ± 0.019
M29F	-0.148 ± 0.027
M29Y	-0.512 ± 0.057
M29S	-0.49 ± 0.026
M29P	-0.903 ± 0.044
Q22C	0.031 ± 0.025
Q22I	-0.076 ± 0.045
Q22G	-0.099 ± 0.022
S43M	-0.013 ± 0.036
S43Q	0.029 ± 0.028
S43W	-0.086 ± 0.05
S43A	0.035 ± 0.051
S43T	-0.007 ± 0.039
S43D	-0.161 ± 0.14
S43R	0.018 ± 0.037
S43Y	-0.053 ± 0.055
A47N	0.033 ± 0.11
N54Y	-0.01 ± 0.065
N54K	0.009 ± 0.043
N54T	-0.008 ± 0.026
N54A	0.019 ± 0.02
N54I	0.054 ± 0.061
N54M	-0.005 ± 0.039
F11V	-0.239 ± 0.024

Variant	abundance fitness
F11P	-1.04 ± 0.1
F11E	-1.12 ± 0.12
F11G	-0.848 ± 0.034
F11N	-1.09 ± 0.093
Y33L	-0.008 ± 0.027
Y33W	-0.122 ± 0.086
Y33H	0.031 ± 0.023
N67S	-0.054 ± 0.27
K12W	-0.364 ± 0.033
K12A	0.006 ± 0.026
K12R	0.015 ± 0.033
K12G	-0.146 ± 0.027
K12C	-0.041 ± 0.028
K59V	-0.056 ± 0.033
K59C	-0.134 ± 0.039
K59I	-0.13 ± 0.051
K59Y	-0.072 ± 0.054
K59M	-0.002 ± 0.056
K59T	-0.033 ± 0.031
K59S	-0.092 ± 0.023
L62P	-0.699 ± 0.064
L62D	-0.354 ± 0.15
L62A	-0.149 ± 0.034
L62I	-0.091 ± 0.041

Variant	abundance fitness
L62V	-0.102 ± 0.026
L62F	-0.017 ± 0.032
A28P	-0.56 ± 0.041
A28E	-0.508 ± 0.43
A28M	-0.043 ± 0.024
A28L	-0.04 ± 0.022
A28V	-0.052 ± 0.11
A28F	-0.11 ± 0.021
A28S	-0.042 ± 0.02
A28T	-0.01 ± 0.024
L48C	0.001 ± 0.086
L48I	0.014 ± 0.04
L48S	-0.005 ± 0.023
L48R	0.004 ± 0.058
L48T	-0.004 ± 0.032
M55L	-0.013 ± 0.025
M55E	-0.488 ± 0.051
M55W	-0.271 ± 0.031
M55K	-0.51 ± 0.038
K31H	0.003 ± 0.062
K31M	-0.256 ± 0.057
K31V	-0.126 ± 0.028
K31L	-0.166 ± 0.026
I16G	-0.207 ± 0.11

Variant	abundance fitness
I16R	-0.169 ± 0.049
V25D	-0.504 ± 0.25
V25I	-0.094 ± 0.086
R14Y	-0.384 ± 0.14
R14T	-0.024 ± 0.059
R14G	-0.067 ± 0.046
R14P	-1.05 ± 0.14
R14L	-0.105 ± 0.034
D36E	-0.027 ± 0.039
D36Q	-0.034 ± 0.031
D36V	-0.029 ± 0.044
F45E	-1.01 ± 0.11
F45M	-0.137 ± 0.022
F45C	-0.451 ± 0.081
F45N	-1.04 ± 0.086
F45H	-0.952 ± 0.052
F45W	-0.247 ± 0.036
F45P	-1.04 ± 0.07
F45K	-0.97 ± 0.052
E5Y	-0.071 ± 0.054
E5H	-0.116 ± 0.077
E5F	-0.13 ± 0.046
E5M	-0.028 ± 0.037
E5S	-0.039 ± 0.031

Variant	abundance fitness
E5N	-0.059 ± 0.059
L61R	0.008 ± 0.047
L61D	-0.075 ± 0.061
L61F	-0.005 ± 0.047
L61V	-0.008 ± 0.025
L61S	-0.078 ± 0.033
L61M	-0.053 ± 0.037
L61H	0.016 ± 0.075
P60A	-0.066 ± 0.077
P60Q	-0.094 ± 0.033
T40H	-0.035 ± 0.072
T40L	-0.001 ± 0.019
T40G	-0.028 ± 0.06
T40R	0.014 ± 0.024
T40C	0.019 ± 0.097
T40E	-0.354 ± 0.25
L1F	0.007 ± 0.044
L1D	-0.145 ± 0.15
L1I	-0.003 ± 0.17
L1E	-0.124 ± 0.11
L1K	0.001 ± 0.11
E46I	-0.84 ± 0.15
E46F	-1 ± 0.23
E46V	-0.852 ± 0.058

Variant	abundance fitness
E46Q	-0.851 ± 0.085
Q39F	-0.14 ± 0.1
Q39G	0.005 ± 0.02
Q39W	-0.005 ± 0.037
Q39N	-0.055 ± 0.062
A69Y	-0.038 ± 0.021
A69N	-0.04 ± 0.023
A69P	-0.112 ± 0.023
A69W	-0.078 ± 0.027
E63W	-0.075 ± 0.15
E63D	-0.45 ± 0.36
E63N	-0.199 ± 0.26
E63G	-0.023 ± 0.11
E63Q	-0.07 ± 0.06
E63P	-0.571 ± 0.19
K57C	0.005 ± 0.035
K57L	-0.005 ± 0.02
K57H	-0.069 ± 0.035
K57V	-0.024 ± 0.037
K57R	-0.047 ± 0.026
K57M	-0.063 ± 0.037
K57D	0.04 ± 0.056
K57I	-0.058 ± 0.057
K57P	-0.451 ± 0.022

Variant	abundance fitness
S38F	-0.199 ± 0.34
S38Q	-0.03 ± 0.021
S38P	-0.041 ± 0.022
I42Y	-0.674 ± 0.25
I42S	-0.997 ± 0.062
I42L	-0.074 ± 0.032
I42W	-0.655 ± 0.079
I42Q	-0.948 ± 0.071
D68R	-0.022 ± 0.021
D68P	-0.419 ± 0.035
D68G	-0.011 ± 0.019
D68T	-0.048 ± 0.024
D68M	-0.034 ± 0.022
D68V	-0.047 ± 0.027
D68W	-0.086 ± 0.028
D68Y	-0.063 ± 0.033
N49V	-0.052 ± 0.032
N49R	-0.079 ± 0.049
N49S	-0.004 ± 0.023
N49I	0.025 ± 0.06
K64T	-0.04 ± 0.03
K64Y	-0.225 ± 0.058
K64A	-0.036 ± 0.025
